# Laboratory results reported in patent US20140235701, “NGF APTAMER AND APPLICATION THEREOF” (RIBOMIC INC., published 2014).
# Numbering of substitutions follows the chain as printed.
# T1: NT-4 (neurotrophin-4) (Homo sapiens, UniProt P34130 P34130:81-210)
# T1 sequence: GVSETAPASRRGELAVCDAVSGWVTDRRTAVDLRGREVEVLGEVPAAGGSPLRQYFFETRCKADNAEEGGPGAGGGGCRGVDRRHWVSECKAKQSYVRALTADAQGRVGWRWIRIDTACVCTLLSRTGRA
# T2: NT-3 (neurotrophin-3) (Homo sapiens, UniProt P20783 P20783:139-257)
# T2 sequence: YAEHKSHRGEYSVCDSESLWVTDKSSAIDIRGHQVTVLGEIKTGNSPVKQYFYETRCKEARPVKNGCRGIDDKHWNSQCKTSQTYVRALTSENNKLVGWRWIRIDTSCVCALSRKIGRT
# B1: SEQ ID NO: 21 (ssRNA)
# RNA: GGGAAUACUUUCGCGGCAUAUGUGCAAACCUUGCCACGACUAUGUCCC
# modifications: 2'-F C and U; 2'-OH G; 2'-H (deoxy) A
# B2: SEQ ID NO: 82(16) (ssRNA)
# RNA: GGGUCCUGGAUAAGAGUUUCCGUCUCGUAUCCUGUUACCC
# modifications: 2'-F C and U except C38; 2'-OMe G1-3,G9,G14,G16,G22,G27,C38; 2'-OH G8,G34; 2'-H A; idT 5' and 3'
# B3: SEQ ID NO: 82(2) (ssRNA)
# RNA: B2 RNA
# modifications: 2'-F C and U except U4; 2'-OMe G1-3,U4,G9,G14,G16,G22,G27; 2'-OH G8,G34; 2'-H A; idT 5' and 3'
# B4: SEQ ID NO: 91 (ssRNA)
# RNA: B2 RNA with G9C, A10C, U30G, C31G
# modifications: 2'-F C and U; 2'-OH G; 2'-H (deoxy) A
# B5: SEQ ID NO: 162 (ssRNA)
# RNA: B2 RNA with U17T, U33T
# modifications: 2'-F C5,U7,U18,U19,C20,C24,U25,U36; dT17,dT33; 2'-OH G8,G34; 2'-H A; 2'-OMe all other; idT 5' and 3'
# B6: SEQ ID NO: 82(25) (ssRNA)
# RNA: B2 RNA
# modifications: 2'-F C5,U7,U17,U18,U19,C20,C24,U25,U33,U36; 2'-OH G8,G34; 2'-H A; 2'-OMe all other; idT 5' and 3'
# B7: SEQ ID NO: 90 (ssRNA)
# RNA: B2 RNA with G9C, A10G, C31G
# modifications: 2'-F C and U; 2'-OH G; 2'-H (deoxy) A
# B8: SEQ ID NO: 82(55) (ssRNA)
# RNA: B2 RNA
# modifications: 2'-F C5,U7,U17,U18,U19,C20,C24,U25,U33,U36; 2'-OH G8,G34; 2'-H A; 2'-OMe all other; 5' PEG80TS4; 3' idT
# B9: SEQ ID NO: 2 (ssRNA)
# RNA: GGGAGAACUUCGACCAGAAGUCCAAACGGGACUUUAUACCUCUGAGUCGCCUACGCUCCUAUGUGCGCAUACAUGGAUCCUC
# modifications: 2'-F C and U; 2'-OH G; 2'-H (deoxy) A
# B10: SEQ ID NO: 5 (ssRNA)
# RNA: GGGAGAACUUCGACCAGAAGUUAGAAGAGGACUAGUUGCUAAUGCCCUGGUUCGUCGCUAUAUGUGCGCAUACAUGGAUCCUC
# modifications: 2'-F C and U; 2'-OH G; 2'-H (deoxy) A
# B11: SEQ ID NO: 17 (ssRNA)
# RNA: AGAAGUGCAAUACUUUCGCGGCAUAUGUGCAAACCUUGCCACGACUAUGUGCGCAUAC
# modifications: 2'-F C and U; 2'-OH G; 2'-H (deoxy) A
# B12: SEQ ID NO: 8 (ssRNA)
# RNA: GGGAGAACUUCGACCAGAAGAUCCACUGGUACUACGUGACCCCGCAUAGGCAAUCCUGCUUAUGUGCGCAUACAUGGAUCCUC
# modifications: 2'-F C and U; 2'-OH G; 2'-H (deoxy) A
# B13: SEQ ID NO: 92 (ssRNA)
# RNA: GGGUCCUGACCAAGAGUUUCCGUCUCGUGGUCUGUACCC
# modifications: 2'-F C and U; 2'-OH G; 2'-H (deoxy) A
# Legend:
# Settings in all cases: tags: R&D Systems; chain copies: 2
# [1] = target: T3, NGF (nerve growth factor) (Homo sapiens, UniProt P01138 P01138:122-241); experiment: SPR; more than 40N
# Description: As the measuring apparatus, BIAcore2000 manufactured by BIAcore was used and, as the sensor chip, CM5 that reacts with an amino group was used. […] For the reaction of an amino group on the protein side and a carboxyl group on the chip side, ethyl-3-carbodiimide hydrochloride and N-hydroxysuccinimide were used. After the reaction, blocking by ethanolamine-HCl was performed. The immobilized amount of NGF was set to 3,000-4,000 RU. An aptamer for analyte was prepared to 0.15 μM-0.5 μM. As a running buffer, solution A was used. Here, solution A is a mixed solution of 145 mM sodium chloride, 5.4 mM potassium chloride, 1.8 mM calcium chloride, 0.8 mM magnesium chloride, 20 mM Tris (pH 7.6), 0.05% Tween 20. As a regeneration solution, a mixed solution of 1M NaCl and 50 mM NaOH was used. NGF was immobilized on FC2, and the results of FC1 were subtracted to give a final sensorgram.
# The binding activity of these aptamers to NGF was evaluated by the surface plasmon resonance method in the same manner as in Example 1.
# NT-4 (neurotrophin-4) = target: T1, NT-4 (neurotrophin-4); experiment: cell_activity; TF-1 TrkB cells
# Text: Using TF-1 cells, whether NGF aptamer inhibits BDNF, NT-3, NT-4 was examined. Human receptor genes (TrkB, TrkC, p75) for respective neurotrophic factors were introduced into TF-1 cells (ATCC Number: CRL-2003), which is a human erythroleukemic cell line, by using a retrovirus vector to give cells that highly express these receptors stably. TF-1 cells introduced with TrkB and p75 were used for the evaluation of inhibitory activity against BDNF, TF-1 cells introduced with TrkC and p75 were used for the evaluation against NT-3, and TF-1 cells introduced with TrkB alone were used for the evaluation against NT-4. These cells were suspended in an RPMI-1640 medium containing 20% fetal bovine serum, and seeded in a white 96 well flat-bottom plate at 1000 cells (50 μL) per well. Thereto was added a mixed solution 50 μL of human BDNF (final concentration 0.074 nM) or NT-3 (final concentration 0.074 nM) or NT-4 (final concentration 0.071 nM) and the aptamer (final concentration 1 μM-0.01 nM), which had been pre-reacted at room temperature for 30 min in a serum-free RPMI-1640 medium, 3 days later, 100 μL of CellTiter-Glo reagent for CellTiter-Glo Luminescent Cell Viability Assay (manufactured by Promega) was added to each well, chemiluminescence was measured by a microplate reader. With the amount of luminescence per well obtained by the addition of BDNF or NT-3 or NT-4 alone and culture of the cells for 3 days as inhibitory activity 0%, and that of the well obtained by culture for 3 days without addition of BDNF or NT-3 or NT-4 as inhibitory activity 100%, the inhibitory activity of the aptamer was calculated from the amount of luminescence per well obtained by culturing with the addition of BDNF or NT-3 or NT-4 and the aptamer in mixture. […] The 50% inhibitory concentration (IC₅₀) was determined from the concentrations at two, above and below points sandwiching the 50% inhibitory activity. An IC₅₀ value indicated as “>X” means that the inhibitory activity was not more than 50% when the indicated concentration X was the maximum measured concentration. N.D. means not measured.
# NT-3 (neurotrophin-3) = target: T2, NT-3 (neurotrophin-3); experiment: cell_activity; TF-1 TrkC/p75 cells
# Text: Using TF-1 cells, whether NGF aptamer inhibits BDNF, NT-3, NT-4 was examined. Human receptor genes (TrkB, TrkC, p75) for respective neurotrophic factors were introduced into TF-1 cells (ATCC Number: CRL-2003), which is a human erythroleukemic cell line, by using a retrovirus vector to give cells that highly express these receptors stably. TF-1 cells introduced with TrkB and p75 were used for the evaluation of inhibitory activity against BDNF, TF-1 cells introduced with TrkC and p75 were used for the evaluation against NT-3, and TF-1 cells introduced with TrkB alone were used for the evaluation against NT-4. These cells were suspended in an RPMI-1640 medium containing 20% fetal bovine serum, and seeded in a white 96 well flat-bottom plate at 1000 cells (50 μL) per well. Thereto was added a mixed solution 50 μL of human BDNF (final concentration 0.074 nM) or NT-3 (final concentration 0.074 nM) or NT-4 (final concentration 0.071 nM) and the aptamer (final concentration 1 μM-0.01 nM), which had been pre-reacted at room temperature for 30 min in a serum-free RPMI-1640 medium, 3 days later, 100 μL of CellTiter-Glo reagent for CellTiter-Glo Luminescent Cell Viability Assay (manufactured by Promega) was added to each well, chemiluminescence was measured by a microplate reader. With the amount of luminescence per well obtained by the addition of BDNF or NT-3 or NT-4 alone and culture of the cells for 3 days as inhibitory activity 0%, and that of the well obtained by culture for 3 days without addition of BDNF or NT-3 or NT-4 as inhibitory activity 100%, the inhibitory activity of the aptamer was calculated from the amount of luminescence per well obtained by culturing with the addition of BDNF or NT-3 or NT-4 and the aptamer in mixture. When the inhibitory activity was 0 or below, ‘0%’ is indicated. The 50% inhibitory concentration (IC₅₀) was determined from the concentrations at two, above and below points sandwiching the 50% inhibitory activity. An IC₅₀ value indicated as “>X” means that the inhibitory activity was not more than 50% when the indicated concentration X was the maximum measured concentration. N.D. means not measured.
# [2] = target: T3, NGF (nerve growth factor); experiment: cell_activity; TF-1 cell proliferation inhibition
# Description: Two NGF receptor (human TrkA and human p75) genes were introduced into TF-1 cells (ATCC Number: CRL-2003), which is a human erythroleukemic cell line, by using a retrovirus vector to give cells that highly express two receptors simultaneously and stably. The cells were suspended in an RPMI-1640 medium containing 20% fetal bovine serum, and seeded in a white 96 well flat-bottom plate at 1000 cells (50 μL) per well. […] With the amount of luminescence per well obtained by the addition of NGF alone and culture of the cells for 3 days as inhibitory activity 0%, and that of the well obtained by NGF free culture for 3 days as inhibitory activity 100%, the inhibitory activity of the aptamer was calculated from the amount of luminescence per well obtained by culturing with the addition of NGF and the aptamer in mixture.
# [3] = target: T3, NGF (nerve growth factor); experiment: SPR; binding maintained on shortening
# [4] = target: T3, NGF (nerve growth factor); experiment: cell_activity; neurite outgrowth inhibition
# Description: The cells (2500 cells per well) were cultured for one day in an RPMI-1640 medium containing 2.5% horse serum and 1.25% fetal bovine serum in a 96 well flat-bottom plate coated with collagen type IV. […] Two days later, the cytoplasm and nuclei were stained using Cellomics Neurite Outgrowth Kit (manufactured by Thermo Scientific), and neurite length per cell was measured by Cellomics ArrayScan VTI (manufactured by Thermo Scientific). With the neurite length per cell obtained by the addition of NGF alone as inhibitory activity 0%, and that of the cell obtained by NGF free culture for 2 days as inhibitory activity 100%, the inhibitory activity of the aptamer was calculated from the neurite length per cell obtained by culturing with the addition of NGF and the aptamer in mixture.
# [5] = target: T3, NGF (nerve growth factor); experiment: SPR; strong inhibition of NGF-receptor binding
# Description: As directed in BIAcore's protocol, Protein A (21181, PIERCE) was immobilized on a CM5 sensor chip. About 700 to 1200 RU of human TrkA fused with the Fc portion of IgG (175-TK, R&D systems) or human P75 (367-NR, R&D systems) was immobilized thereon. As the analyte, a mixture of NGF (0.1 μM) and each aptamer (0.3 μM) was injected after being allowed to stand for 30 minutes. […] When NGF binds stronger to a receptor than an aptamer, the aptamer may be removed and NGF may bind to the receptor. Before starting the inhibition experiment, binding of TrkA or p75 and NGF was confirmed.
# [6] = target: T3, NGF (nerve growth factor); experiment: SPR; inhibits NGF-receptor binding; inhibits neurite outgrowth at 10 nM
# T3 sequence (P01138 122-241, one chain of several): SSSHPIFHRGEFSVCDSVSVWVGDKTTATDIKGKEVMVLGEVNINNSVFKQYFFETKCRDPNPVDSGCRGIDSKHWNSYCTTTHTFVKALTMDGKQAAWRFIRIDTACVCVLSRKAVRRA
binder,measurement,setting,value
B1,binding result,[1],binds
B2,IC50,NT-4 (neurotrophin-4),< 3 nM
same,IC50,NT-3 (neurotrophin-3),34.4 nM
same,IC50,[2],0.026 nM
B3,IC50,NT-4 (neurotrophin-4),< 3 nM
same,IC50,NT-3 (neurotrophin-3),40.6 nM
same,IC50,[2],0.041 nM
B4,binding result,[3],binds
B5,IC50,[4],0.033 nM
same,IC50,[2],0.014 nM
B6,IC50,NT-4 (neurotrophin-4),40.4 nM
same,IC50,[4],< 0.1 nM
same,IC50,NT-3 (neurotrophin-3),2.15 nM
same,IC50,[2],0.085 nM
B7,binding result,[3],binds
B8,IC50,[4],0.101 nM
same,IC50,NT-3 (neurotrophin-3),0.97 nM
same,IC50,[2],0.039 nM
B9,binding result,[5],binds
B10,binding result,[5],binds
B11,binding result,[1],binds
B12,binding result,[6],binds
B13,binding result,[3],binds
